The subject of experiment [1] is retinal ganglion cells (RGCs). The experiment can be described thus: Synapse assay: co-localized Bassoon/Homer synaptic puncta by immunocytochemistry. The class given is cell-based, Sprague-Dawley rat. Conditions: 32 μM GBP added together with UCM. From the text:
(§1) Retinal Ganglion Cells: Retinal ganglion cells (RGCs) were purified by sequential immuno-panning from P7 (postnatal day 7) Sprague-Dawley rat retinas (Charles River, Wilmington, Mass.) of either sex as previously described (Winzeler A, Wang J T., Cold Spring Harbor Protocols, 2013; 643-652). Briefly, retinas were dissected and dissociated with papain (6 U/mL, Worthington, Burlingame, Calif.). Dissociated cells were panned first with Bandeiraea Simplicifolia Lectin I (BSL, Vector laboratories, Burlingame, Calif.) coated petri dishes to remove immune cells, cell debris and fibroblasts. The unbound cells were transferred to a petri dish coated with anti-Thy1 (clone T11D7) antibody for specific isolation of RGCs. The purified RGCs were gently trypsinized and re-plated onto poly-D-Lysine (PDL) and laminin-coated glass coverslips in 24-well plates (35,000 cells/coverslip). […]
Synapse formation was assessed by immunocytological analyses of the co-localization of pre-(Bassoon) and post-synaptic (Homer) markers, and electrophysiology. […] Morphologically healthy single cells that were at least two cell diameters from their nearest neighbor were identified randomly by DAPI fluorescence. […]

The subject of experiment [2] is retinal ganglion cells (RGCs). The experiment can be described thus: Neurite outgrowth assay under growth-inhibiting conditions (CSPG, Nogo-A, MBP). The experiment is classed as cell-based, Sprague-Dawley rat.
Text: as §1, with “RGCs.” for “RGCs. The purified RGCs were gently trypsinized and re-plated onto poly-D-Lysine (PDL) and laminin-coated glass coverslips in 24-well plates (35,000 cells/coverslip).”
To test neurite outgrowth under pathologic (i.e. growth-inhibiting) culture conditions, the RGCs (1,500 cells/coverslip) were seeded onto coverslips that were coated with various concentrations of chondroitin sulfate proteoglycan (CSPG, EMD Millipore, Billerica, Mass.), Nogo-A (R&D Systems, Minneapolis, Minn.) or in the presence of soluble myelin basic protein (MBP, 10 ug/mL, Sigma-Aldrich, St. Louis, Mo.). […] At least 30 cells per condition were imaged and analyzed per experiment and the results presented are the average of 2-3 independent experiments. Neuronal morphology was analyzed using neurite outgrowth application module in Metamorph software (Molecular Devices). […]

As for `NCC1(CC(=O)O)CCCCC1` [GBP, Gabapentin], in experiment [1], the “UCM-induced synapse formation in the presence of gabapentin” value was “blocked the synaptogenic factors”.

B1: Nogo-A: myelin protein Nogo-A (R&D Systems), growth-inhibiting coating (protein, UniProt Q9NQC3 1-1192, looked up)
Reticulon-4: MEDLDQSPLVSSSDSPPRPQPAFKYQFVREPEDEEEEEEEEEEDEDEDLEELEVLERKPAAGLSAAPVPTAPAAGAPLMDFGNDFVPPAPRGPLPAAPPVAPERQPSWDPSPVSSTVPAPSPLSAAAVSPSKLPEDDEPPARPPPPPPASVSPQAEPVWTPPAPAPAAPPSTPAAPKRRGSSGSVDETLFALPAASEPVIRSSAENMDLKEQPGNTISAGQEDFPSVLLETAASLPSLSPLSAASFKEHEYLGNLSTVLPTEGTLQENVSEASKEVSEKAKTLLIDRDLTEFSELEYSEMGSSFSVSPKAESAVIVANPREEIIVKNKDEEEKLVSNNILHNQQELPTALTKLVKEDEVVSSEKAKDSFNEKRVAVEAPMREEYADFKPFERVWEVKDSKEDSDMLAAGGKIESNLESKVDKKCFADSLEQTNHEKDSESSNDDTSFPSTPEGIKDRSGAYITCAPFNPAATESIATNIFPLLGDPTSENKTDEKKIEEKKAQIVTEKNTSTKTSNPFLVAAQDSETDYVTTDNLTKVTEEVVANMPEGLTPDLVQEACESELNEVTGTKIAYETKMDLVQTSEVMQESLYPAAQLCPSFEESEATPSPVLPDIVMEAPLNSAVPSAGASVIQPSSSPLEASSVNYESIKHEPENPPPYEEAMSVSLKKVSGIKEEIKEPENINAALQETEAPYISIACDLIKETKLSAEPAPDFSDYSEMAKVEQPVPDHSELVEDSSPDSEPVDLFSDDSIPDVPQKQDETVMLVKESLTETSFESMIEYENKEKLSALPPEGGKPYLESFKLSLDNTKDTLLPDEVSTLSKKEKIPLQMEELSTAVYSNDDLFISKEAQIRETETFSDSSPIEIIDEFPTLISSKTDSFSKLAREYTDLEVSHKSEIANAPDGAGSLPCTELPHDLSLKNIQPKVEEKISFSDDFSKNGSATSKVLLLPPDVSALATQAEIESIVKPKVLVKEAEKKLPSDTEKEDRSPSAIFSAELSKTSVVDLLYWRDIKKTGVVFGASLFLLLSLTVFSIVSVTAYIALALLSVTISFRIYKGVIQAIQKSDEGHPFRAYLESEVAISEELVQKYSNSALGHVNCTIKELRRLFLVDDLVDSLKFAVLMWVFTYVGALFNGLTLLILALISLFSVPVIYERHQAQIDHYLGLANKNVKDAMAKIQAKIPGLKRKAE
Regarding B1, in experiment [2] (at 2 μg/cm^2 coating), the neurite growth inhibited result is recorded as “more than 50%”. In addition, the “coating concentration from which neurite outgrowth is hindered/blocked” value in experiment [2] (coated coverslips) stood at 1 μg/cm^2.

These data come from US20160158293A1, “Treatment of Ocular Conditions Using Progenitor Cells” (JANSSEN BIOTECH, INC., priority 2014, published 2016).
